No end group written: not given here.
How the values were obtained:
[1] = target: T1, human AAT (Homo sapiens, UniProt P01009); assay: Static binding capacity and affinity of peptide-Toyopearl resins (AAT adsorption isotherms, Langmuir fit); details: pure AAT in PBS at pH 7.4; Langmuir isotherm fit
T1 construct: purchased CSL Behring (King of Prussia, PA, USA)
Experimental: Static binding capacity and affinity of peptide-Toyopearl resins. […] Aliquots of 50 μL of peptide-Toyopearl resin were transferred in a tube, swollen in 20% v/v aqueous methanol, washed in MilliQ water, and finally equilibrated in PBS at pH 7.4. The resin aliquots were individually incubated with 0.5 mL of a solution of AAT at different concentrations (0.1, 0.25, 0.5, 0.75, 1.0, 1.5, 2.0, and 5.0 mg/mL) for 1.5 hrs at room temperature under gentle rotation. After incubation, the resin aliquots were centrifuged and the supernatants collected as unbound (UB) fraction; the resins were also washed with 0.5 mL of PBS for 30 min, and the supernatants were combined with the corresponding UB fractions. These were finally analyzed by Micro BCA Protein Assay kit to determine the concentration C* of unbound AAT in solution at the equilibrium with the resin, from which the amount q of bound AAT per volume of resin was determined by mass balance. The values of q vs. C* were plotted and fit using a Langmuir isotherm (Equation 1) to determine the values of maximum binding capacity (Qmax) and affinity dissociation constant (KD)).
Evaluation of AAT-binding peptides via in vitro and in silico AAT binding studies. […] Toyopearl resin was selected for ligand conjunction owing to its high chemical and mechanical stability as well as low non-specific protein adsorption, which make it an ideal substrate for direct peptide conjugation and protein chromatography.

[2] = target: T2, Human Alpha-1 antitrypsin (AAT) (human, UniProt P01009 25-418); assay: static adsorption isotherm, pure AAT in PBS pH 7.4, Langmuir fit
T2 construct: Pure AAT in buffer, as used in the isotherm and breakthrough studies; also called α-1 antitrypsin; human AAT
T2 sequence (P01009 25-418 limits assumed): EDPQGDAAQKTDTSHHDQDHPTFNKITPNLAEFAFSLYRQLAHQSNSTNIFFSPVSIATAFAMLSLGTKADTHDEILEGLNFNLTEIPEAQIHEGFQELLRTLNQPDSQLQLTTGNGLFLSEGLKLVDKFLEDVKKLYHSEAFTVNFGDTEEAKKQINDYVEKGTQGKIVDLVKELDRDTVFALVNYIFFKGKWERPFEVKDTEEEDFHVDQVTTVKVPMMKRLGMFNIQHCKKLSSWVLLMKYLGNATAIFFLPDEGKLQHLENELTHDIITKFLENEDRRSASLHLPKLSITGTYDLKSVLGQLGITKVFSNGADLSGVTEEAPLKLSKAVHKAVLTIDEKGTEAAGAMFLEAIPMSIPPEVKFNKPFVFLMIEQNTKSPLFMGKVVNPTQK
Experimental: Static binding capacity and affinity of peptide-Toyopearl resins. The selected sequences were synthesized on Toyopearl AF-Amino 650 M resin as described herein and evaluated via isotherm binding studies of AAT in non-competitive mode (e.g., pure AAT in PBS at pH 7.4) as described in prior work. Aliquots of 50 μL of peptide-Toyopearl resin were transferred in a tube, swollen in 20% v/v aqueous methanol, washed in MilliQ water, and finally equilibrated in PBS at pH 7.4. The resin aliquots were individually incubated with 0.5 mL of a solution of AAT at different concentrations (0.1, 0.25, 0.5, 0.75, 1.0, 1.5, 2.0, and 5.0 mg/mL) for 1.5 hrs at room temperature under gentle rotation. After incubation, the resin aliquots were centrifuged and the supernatants collected as unbound (UB) fraction; the resins were also washed with 0.5 mL of PBS for 30 min, and the supernatants were combined with the corresponding UB fractions. These were finally analyzed by Micro BCA Protein Assay kit to determine the concentration C* of unbound AAT in solution at the equilibrium with the resin, from which the amount q of bound AAT per volume of resin was determined by mass balance. The values of q vs. C* were plotted and fit using a Langmuir isotherm (Equation 1) to determine the values of maximum binding capacity (Qₘₐₓ) and affinity dissociation constant (KD)).

[3] = target: T2, Human Alpha-1 antitrypsin (AAT); assay: dynamic binding capacity at 10% breakthrough, PBS pH 7.4, residence time 5 min
Experimental: (§1) Dynamic binding capacity of peptide Toyopearl resins. The dynamic binding capacity at 10% breakthrough (DBC_{10%}, mg of AAT per mL resin) of the selected peptide-Toyopearl resins and the control AAT Select resin was measured. A volume of 0.1 mL of resin was wet packed in a Vici Jour PEEK column, washed with 10 column volumes (CVs) of 20% v/v ethanol, deionized water (3 CVs), and finally equilibrated with 10 CVs of binding buffer. The binding buffers used in this study were (i) 0.15M NaCl in 20 mM Bis-Tris HCl buffer at pH 6.0, (ii) PBS buffer at pH 7.4, and (iii and iv) 0.15M NaCl in 50 mM Tris HCl buffer at pH 7.4 or pH 8.0. A volume of 2 mL of solution of human AAT at 1 mg/mL in PBS buffer was continuously loaded on the column at the flow rate of either 0.05 mL/min (residence time, RT: 2 min) or 0.02 mL/min (RT: 5 min). After loading, the resin was washed with 10 CVs of binding buffer at the flow rate of 0.1 mL/min. AAT elution was then performed with 20 CVs of PBS in 2 M MgCl₂ at pH 7.4 at the flow rate of 0.2 mL/min. The resin was regenerated with 10 CVs of glycine buffer at pH 2.0 at the flow rate of 0.2 mL/min. The effluents were continuously monitored by UV spectrometry at 280 nm and the resulting chromatograms were utilized to calculate the DBC_{10%} of AAT.
(§2) Evaluation of AAT-binding peptides via dynamic binding measurements. Following the equilibrium binding studies, the selected peptide-Toyopearl resins were evaluated under dynamic conditions to evaluate the interplay of kinetic factors—chiefly, the AAT transport within the chromatographic particles and the formation of AAT:peptide complexes—on the resultant binding capacity. To that end, the dynamic binding capacity at 10% breakthrough (DBC_{10%}, mg of AAT per mL of resin) of the peptide-Toyopearl resins was measured at two values of residence time (RT), namely 2 and 5 min, and four different buffer compositions, namely 20 mM Bis-Tris HCl buffer (0.15M NaCl) at pH 6.0, PBS buffer at pH 7.4, and 50 mM Tris HCl buffer (0.15M NaCl) at pH 7.4 and 8.0, and compared with that of AAT Select from Cytiva (FIG. 4; the corresponding breakthrough curves are reported in FIG. 9).

[4] = target: T2, Human Alpha-1 antitrypsin (AAT); assay: dynamic binding capacity at 10% breakthrough, Tris buffer pH 7.4, residence time 2 or 5 min
[5] = target: T2, Human Alpha-1 antitrypsin (AAT); assay: dynamic binding capacity at 10% breakthrough, PBS pH 7.4, residence time 2 min
Experimental: as §1, §2

T1 sequence (P01009 25-418): as the sequence (P01009 25-418 limits assumed) above

Question: For “KHAWIFG-Toyopearl: peptide ligand KHAWIFG conjugated on Toyopearl AF-Amino-650M resin (KHAWIFG-{Toyopearl AF‑Amino‑650M resin})”, which “Qmax (mgAAT per mLR)” value [1] is on record?
Answer: Its value is 7.2 mgAAT per mLR.

Question: With Alpha-1 Antitrypsin Select resin as the molecule, how does the Kd [2] read?
Answer: Its Kd is 510 nM.

Question: And the Qmax (mgAAT per mLR) [2]?
Answer: Its Qmax (mgAAT per mLR) is 13.5.

Question: And the DBC10% [3]?
Answer: Its DBC10% is 12.8 mg/mL.

Question: What about the DBC10% [4] of the same molecule?
Answer: The DBC10% was 12 mg/mL.

Question: What about the DBC10% [5] of the same molecule?
Answer: Its DBC10% is 12.3 mg/mL.

Question: With “KFHAWNG-Toyopearl: peptide ligand KFHAWNG conjugated on Toyopearl AF-Amino-650M resin (KFHAWNG-{Toyopearl AF‑Amino‑650M resin})” as the molecule, how does the “Qmax (mgAAT per mLR)” value [1] read?
Answer: The value was 8.9 mgAAT per mLR.

Question: With “NHNKIHG-Toyopearl: peptide ligand NHNKIHG conjugated on Toyopearl AF-Amino-650M resin (NHNKIHG-{Toyopearl AF‑Amino‑650M resin})” as the molecule, how does the “Qmax (mgAAT per mLR)” value [1] read?
Answer: The value was 6.3 mgAAT per mLR.

Question: How did the “Qmax (mgAAT per mLR)” value [1] turn out when “SHWHWAG-Toyopearl: peptide ligand SHWHWAG conjugated on Toyopearl AF-Amino-650M resin (SHWHWAG-{Toyopearl AF‑Amino‑650M resin})” was run?
Answer: The value was 7.0 mgAAT per mLR.

Question: Which results are given for WHAKKSKFG-{Toyopearl AF‑Amino‑650M resin} (not fully specified; printed as WHAKKSKFG-Toyopearl) [WHAKKSKFG-Toyopearl]?
Answer: Kd [2]: 2090 nM; Qmax [2]: 12.9 mgAAT per mLR; DBC10% [3]: 12.7 mg/mL; DBC10% [5]: 10.3 mg/mL

Question: What does the source list for WHAKKSHFG-{Toyopearl AF‑Amino‑650M resin} (not fully specified; printed as WHAKKSHFG-Toyopearl) [WHAKKSHFG-Toyopearl]?
Answer: Kd [2]: 950 nM; Qmax [2]: 16.3 mgAAT per mLR; DBC10% [3]: 12.5 mg/mL; DBC10% [5]: 9.3 mg/mL

Question: How did the Kd [2] turn out when SHWHWAG-{Toyopearl AF‑Amino‑650M resin} (not fully specified; printed as SHWHWAG-Toyopearl) [SHWHWAG-Toyopearl] was run?
Answer: Its Kd is 3280 nM.

Question: And the Qmax [2]?
Answer: The Qmax was 7 mgAAT per mLR.

Question: What does the source list for KHAWIFG-{Toyopearl AF‑Amino‑650M resin} (not fully specified; printed as KHAWIFG-Toyopearl) [KHAWIFG-Toyopearl]?
Answer: Kd [2]: 1420 nM; Qmax [2]: 7.2 mgAAT per mLR

Question: Which Kd [2] does the source give for NHNKIHG-{Toyopearl AF‑Amino‑650M resin} [NHNKIHG-Toyopearl] here?
Answer: The Kd was 2320 nM.

Question: And the Qmax [2]?
Answer: Its Qmax is 6.3 mgAAT per mLR.

Question: What does the source list for KHSKAIAAG-{Toyopearl AF‑Amino‑650M resin} (not fully specified; printed as KHSKAIAAG-Toyopearl) [KHSKAIAAG-Toyopearl]?
Answer: Kd [2]: 3620 nM; Qmax [2]: 9.1 mgAAT per mLR

Question: With KFHAWNG-{Toyopearl AF‑Amino‑650M resin} (not fully specified; printed as KFHAWNG-Toyopearl) [KFHAWNG-Toyopearl] as the molecule, how does the Kd [2] read?
Answer: Its Kd is 2480 nM.

Question: What about the Qmax [2] of the same molecule?
Answer: The Qmax was 8.9 mgAAT per mLR.

Question: How did the Kd [2] turn out when ANAKIKKKG-{Toyopearl AF‑Amino‑650M resin} (not fully specified; printed as ANAKIKKKG-Toyopearl) [ANAKIKKKG-Toyopearl] was run?
Answer: The Kd was 6700 nM.

Question: What about the Qmax [2] of the same molecule?
Answer: The Qmax was 3.51 mgAAT per mLR.

Question: Which results are given for KAWFKHWNG-{Toyopearl AF‑Amino‑650M resin} (not fully specified; printed as KAWFKHWNG-Toyopearl) [KAWFKHWNG-Toyopearl]?
Answer: Kd [2]: 870 nM; Qmax [2]: 10.2 mgAAT per mLR

Question: FEKWAKAHG-{Toyopearl AF‑Amino‑650M resin} (not fully specified; printed as FEKWAKAHG-Toyopearl) [FEKWAKAHG-Toyopearl] was tested. Which Kd [2] did it give?
Answer: The Kd was 4670 nM.

Question: And the Qmax [2]?
Answer: Its Qmax is 5.1 mgAAT per mLR.

Question: Which results are given for KWKHSHKWG-{Toyopearl AF‑Amino‑650M resin} (not fully specified; printed as KWKHSHKWG-Toyopearl) [KWKHSHKWG-Toyopearl]?
Answer: Kd [2]: 630 nM; Qmax [2]: 15.8 mgAAT per mLR; DBC10% [3]: 11.6 mg/mL; DBC10% [5]: 8.9 mg/mL

Question: How did the Kd [2] turn out when AAHFHKG-{Toyopearl AF‑Amino‑650M resin} (not fully specified; printed as AAHFHKG-Toyopearl) [AAHFHKG-Toyopearl] was run?
Answer: The Kd was 4710 nM.

Question: And the Qmax [2]?
Answer: Its Qmax is 8.7 mgAAT per mLR.

Question: FSHHSWKFG-{Toyopearl AF‑Amino‑650M resin} (not fully specified; printed as FSHHSWKFG-Toyopearl) [FSHHSWKFG-Toyopearl] was tested. Which Kd [2] did it give?
Answer: Its Kd is 3630 nM.

Question: And the Qmax [2]?
Answer: The Qmax was 9.4 mgAAT per mLR.
